Experimental data published in publication PMC6321010, “Interaction of the GTPase Elongation Factor Like-1 with the Shwachman-Diamond Syndrome Protein and Its Missense Mutations” (International Journal of Molecular Sciences, 2018).

What was measured:
Assay in all cases: fluorescence polarisation; fluorescence anisotropy; 2 µL additions of 40-90 µM human EFL1 titrated into 300 µL of 0.1 µM Lumio Green-labelled human SBDS-FlAsH construct; 25 °C; 50 mM Tris-HCl pH 8, 300 mM NaCl, 5 mM β-mercaptoethanol; fitted to a single-site or a two different binding sites model
Conditions in all cases: both partners purified
[1] = biological target: T1, human SBDS I167T with C-terminal FlAsH tag, labelled with Lumio Green (human, UniProt Q9Y3A5 1-250, I167T, Lumio Green dye (4',5'-bis(1,3,2-dithioarsolan-2-yl) fluorescein) on the C-terminal FlAsH tag)
T1 construct: human SBDS, SDS disease surface missense variant I167T (domain 2), in the three-domain protein; Missense variant found in patients; source: E. coli C41 (pRSET plasmid), purified by conventional chromatographic techniques; not shown: FlAsH tag (Cys-Cys-Pro-Gly-Cys-Cys), C-terminal, kept
T1 sequence (looked up): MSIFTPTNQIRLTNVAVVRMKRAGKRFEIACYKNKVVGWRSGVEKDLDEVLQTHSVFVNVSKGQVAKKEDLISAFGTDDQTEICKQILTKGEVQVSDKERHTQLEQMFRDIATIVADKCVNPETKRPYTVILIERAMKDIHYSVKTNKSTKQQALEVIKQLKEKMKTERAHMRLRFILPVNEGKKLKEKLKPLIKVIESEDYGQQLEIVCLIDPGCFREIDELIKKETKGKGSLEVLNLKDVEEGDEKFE

[2] = biological target: T2, human SBDS R175W with C-terminal FlAsH tag, labelled with Lumio Green (human, UniProt Q9Y3A5 1-250, R175W, Lumio Green dye (4',5'-bis(1,3,2-dithioarsolan-2-yl) fluorescein) on the C-terminal FlAsH tag)
T2 construct: Missense variant found in patients; source: E. coli C41 (pRSET plasmid), purified by conventional chromatographic techniques; not shown: FlAsH tag (Cys-Cys-Pro-Gly-Cys-Cys), C-terminal, kept
T2 sequence (looked up): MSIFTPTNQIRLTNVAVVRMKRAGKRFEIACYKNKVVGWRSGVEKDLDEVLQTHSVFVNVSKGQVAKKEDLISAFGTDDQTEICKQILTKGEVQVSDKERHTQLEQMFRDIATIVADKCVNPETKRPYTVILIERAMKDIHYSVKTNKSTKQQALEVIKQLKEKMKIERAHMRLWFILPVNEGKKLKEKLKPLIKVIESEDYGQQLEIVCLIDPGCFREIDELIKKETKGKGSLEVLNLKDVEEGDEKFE

[3] = biological target: T3, human SBDS R126T with C-terminal FlAsH tag, labelled with Lumio Green (human, UniProt Q9Y3A5 1-250, R126T, Lumio Green dye (4',5'-bis(1,3,2-dithioarsolan-2-yl) fluorescein) on the C-terminal FlAsH tag)
T3 construct: human SBDS, SDS disease surface missense variant R126T (domain 2), in the three-domain protein; Missense variant found in patients; source: E. coli C41 (pRSET plasmid), purified by conventional chromatographic techniques; not shown: FlAsH tag (Cys-Cys-Pro-Gly-Cys-Cys), C-terminal, kept
T3 sequence (looked up): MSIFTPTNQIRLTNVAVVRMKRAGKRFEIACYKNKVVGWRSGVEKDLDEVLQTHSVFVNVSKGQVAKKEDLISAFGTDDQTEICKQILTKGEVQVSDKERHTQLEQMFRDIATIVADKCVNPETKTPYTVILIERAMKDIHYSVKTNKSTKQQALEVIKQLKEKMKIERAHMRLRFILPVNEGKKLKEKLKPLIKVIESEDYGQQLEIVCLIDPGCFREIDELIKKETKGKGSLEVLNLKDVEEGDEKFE

[4] = biological target: T4, human SBDS domains 1-2 (residues 1-174) with C-terminal FlAsH tag, labelled with Lumio Green (human, UniProt Q9Y3A5 1-174, Lumio Green dye (4',5'-bis(1,3,2-dithioarsolan-2-yl) fluorescein) on the C-terminal FlAsH tag)
T4 construct: human SBDS, domains 1-2, residues 1-174; also called construct consisting of domains 1-2 of SBDS; source: E. coli C41 (pRSET plasmid), purified by conventional chromatographic techniques; not shown: FlAsH tag (Cys-Cys-Pro-Gly-Cys-Cys), C-terminal, kept
T4 sequence (looked up): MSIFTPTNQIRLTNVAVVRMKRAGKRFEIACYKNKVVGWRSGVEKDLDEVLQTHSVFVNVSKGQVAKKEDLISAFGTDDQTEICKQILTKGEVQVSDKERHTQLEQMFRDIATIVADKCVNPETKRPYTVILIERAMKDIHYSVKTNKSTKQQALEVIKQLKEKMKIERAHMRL

B1: human Elongation Factor Like-1 (EFL1) (enzyme)
chain: MVLNSLDKMIQLQKNTANIRNICVLAHVDHGKTTLADCLISSNGIISSRLAGKLRYMDSREDEQIRGITMKSSAISLHYATGNEEYLINLIDSPGHVDFSSEVSTAVRICDGCIIVVDAVEGVCPQTQAVLRQAWLENIRPVLVINKIDRLIVELKFTPQEAYSHLKNILEQINALTGTLFTSKVLEERAERETESQVNPNSEQGEQVYDWSTGLEDTDDSHLYFSPEQGNVVFTSAIDGWGFGIEHFARIYSQKIGIKKEVLMKTLWGDYYINMKAKKIMKGDQAKGKKPLFVQLILENIWSLYDAVLKKDKDKIDKIVTSLGLKIGAREARHSDPKVQINAICSQWLPISHAVLAMVCQKLPSPLDITAERVERLMCTGSQTFDSFPPETQALKAAFMKCGSEDTAPVIIFVSKMFAVDAKALPQNKPRPLTQEEIAQRRERARQRHAEKLAAAQGQAPLEPTQDGSAIETCPKGEEPRGDEQQVESMTPKPVLQEENNQESFIAFARVFSGVARRGKKIFVLGPKYSPLEFLRRVPLGFSAPPDGLPQVPHMAYCALENLYLLMGRELEYLEEVPPGNVLGIGGLQDFVLKSATLCSLPSCPPFIPLNFEATPIVRVAVEPKHPSEMPQLVKGMKLLNQADPCVQILIQETGEHVLVTAGEVHLQRCLDDLKERFAKIHISVSEPIIPFRETITKPPKVDMVNEEIGKQQKVAVIHQMKEDQSKIPEGIQVDSDGLITITTPNKLATLSVRAMPLPEEVTQILEENSDLIRSMEQLTSSLNEGENTHMIHQKTQEKIWEFKGKLEQHLTGRRWRNIVDQIWSFGPRKCGPNILVNKSEDFQNSVWTGPADKASKEASRYRDLGNSIVSGFQLATLSGPMCEEPLMGVCFVLEKWDLSKFEEQGASDLAKEGQEENETCSGGNENQELQDGCSEAFEKRTSQKGESPLTDCYGPFSGQLIATMKEACRYALQVKPQRLMAAMYTCDIMATGDVLGRVYAVLSKREGRVLQEEMKEGTDMFIIKAVLPVAESFGFADEIRKRTSGLASPQLVFSHWEIIPSDPFWVPTTEEEYLHFGEKADSENQARKYMNAVRKRKGLYVEEKIVEHAEKQRTLSKNK
notes: human EFL1, GTPase, said to comprise 1120 residues; the expressed protein is fused to a TEV recognition site and a hexahistidine tag at the C-terminus; also called human EFL1; GTPase Elongation Factor Like-1; source: S. cerevisiae BCY123 (pRS426 backbone, GAL1/10 promoter), purified
Kd1 (first binding site, two different binding sites model) [1]: 10 ± 3 µM
Kd2 (second binding site, two different binding sites model) [1]: 1.4 ± 0.2 µM
Kd1 (first binding site, two different binding sites model) [2]: 12 ± 4 µM
Kd2 (second binding site, two different binding sites model) [2]: 3.3 ± 0.6 µM
Kd1 (first binding site, two different binding sites model) [3]: 9.3 ± 1.7 µM
Kd2 (second binding site, two different binding sites model) [3]: 2.5 ± 0.2 µM
Kd1 (first binding site, two different binding sites model) [4]: 11.3 ± 1.8 µM
Kd2 (second binding site, two different binding sites model) [4]: 3.9 ± 0.2 µM
